According to the supplement of paper PMC10567573:
± gives the standard deviation.

Test: protein stability index of a GFP-peptide fusion (GPS, HEK-293T) (PSI 1-6); higher = more stable
[1] = treatment: DMSO, c terminus: a fixed tail appended
[2] = treatment: MLN4924 1 uM, 8 h, c terminus: a fixed tail appended
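Also: 24-mer peptide tiles fused after GFP, lentivirally expressed, FACS-sorted into six equal bins by GFP/DsRed ratio, decoded by Illumina sequencing, PSI is the read-weighted mean bin number.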

Row | Sequence | protein stability index [1] | protein stability index [2] | protein stability index (treatment: DMSO, c terminus: native) | protein stability index (treatment: MLN4924 1 uM, 8 h, c terminus: native)
1 | INEDLKTCSRVDYCLLSDHGCEYS [MATN2] | 3.41 ± 0.21 | 3.35 ± 0.33 |  | 
2 | DSISLHQPCNPPAPAGDKGFQPPS [DMRTC1] | 5 ± 0.27 | 5 ± 0.16 |  | 
3 | LDQPAFQQLVSFSESGSLGNSSGS [ISL2] | 4.43 ± 0.13 | 4.56 ± 0.075 |  | 
4 | AVQKTDEGHPFKAYLELEITLSQE [RTN1] | 2.24 ± 0.24 | 2.56 ± 0.17 |  | 
5 | LRIPFPRDCGEEMQNGAGASRTST [TNXB] | 4.02 ± 0.45 | 4.28 ± 0.79 |  | 
6 | PADIQAQFAISRELIRNIYNSFHK [SNX8] | 2.04 ± 0.29 | 2.24 ± 0.3 |  | 
7 | ARAFAEKNGLSFIETSALDSTNVE [RAB11A] | 4.28 ± 0.41 | 4.24 ± 0.44 |  | 
8 | ASVSDEELKRRVAEELALEQAKKE [CHCHD3] | 5.76 ± 0.25 | 5.45 ± 0.49 |  | 
9 | KGYPDGVKSIVVKGYNIWTGGPDA [TLE6] | 2.68 ± 0.28 | 2.8 ± 0.49 |  | 
10 | MEALKLQPGLSFLNLGSGTGYLST [PCMTD1] | 2.3 ± 0.2 | 2.31 ± 0.22 |  | 
11 | ASAQKFSSRSTVPTPAKRRSSALW [NET1] | 3.41 ± 0.039 | 3.5 ± 0.33 |  | 
12 | YLRPQSNYSSSQDALISVSYTIIT [OR10K2] | 2.73 ± 0.7 | 2.68 ± 0.99 |  | 
13 | MVQQIQENSVEFEACLVAQCDALI [TRIM9] | 2.9 ± 0.35 | 2.97 ± 0.36 |  | 
14 | KPAFIGKTNLDGMITVQLPEVPAN [PTPRD] | 3.77 ± 0.16 | 3.81 ± 0.19 |  | 
15 | QQTKLEAEKLKVQALKDRGLSIPR [LSM1] | 4.12 ± 0.16 | 4.21 ± 0.075 |  | 
16 | RLHLAFKRQVPREQAQAYAERLGV [RAB40A] | 2.76 ± 0.16 | 3.12 ± 0.18 |  | 
17 | SPLLETFSDLQVYSYRRLGEEALS [SLC22A15] | 2.44 ± 0.31 | 2.27 ± 0.23 |  | 
18 | EDSNWEKSPDNEDSGDSKDIRLTL [GOLPH3L] | 5.37 ± 0.16 | 5.37 ± 0.12 |  | 
19 | EPESKNAPHSQGEYDVYSTFQSHE [PPP2R2C] | 5.19 ± 0.15 | 5.19 ± 0.15 |  | 
20 | EKELVFDIDMTDYDDVRRCCSSAD [PRIM1] | 4.73 ± 0.27 | 4.7 ± 0.35 |  | 
21 | WVRSVSFSHDGLHVASLADDKMVR [WSB1] | 2.66 ± 0.4 | 3.54 ± 0.45 |  | 
22 | TQHWPIRLDGQQEPQPFVTSDVYS [MYORG] | 3.56 ± 0.27 | 3.46 ± 0.22 |  | 

Row | Sequence | protein stability index [1] | protein stability index [2] | protein stability index (treatment: DMSO, c terminus: native) | protein stability index (treatment: MLN4924 1 uM, 8 h, c terminus: native)
23 | DDATCRLYDLRADREVAIYSKESI [GNB5] | 3.51 ± 0.24 | 3.4 ± 0.17 |  | 
24 | IRTANCTTANQNCVNKSKLLTDV [KCNA1] |  |  | 3.19 ± 0.13 | 3.35 ± 0.28
25 | GRCLEVEMSKDANFGLRLVVQRCS [GALNT9] | 2.27 ± 0.15 | 2 ± 0.41 |  | 
26 | QCRHTLEQHNWNIEAAVQDRLNEQ [FAF2] | 3.89 ± 0.17 | 3.87 ± 0.18 |  | 
27 | IPYNAKFLGSTEVEQPKGTEVVRD [GULP1] | 4.7 ± 0.44 | 4.69 ± 0.23 |  | 
28 | ESGPSAEKYSVATQLFIGGVTGWC [FUNDC2] | 2.14 ± 0.29 | 1.97 ± 0.38 |  | 
29 | QEPMVPAKLGTQAEKDRRLKKKHQ [PPFIA4] | 5.32 ± 0.42 | 5.56 ± 0.11 |  | 
30 | PLHNSGLLSLDPVQDKTPLYSQLL [MED27] | 2.76 ± 0.27 | 2.92 ± 0.34 |  | 
31 | VISCLEQGEEPWVQVSPEFKDSAG [ZNF75A] | 4.59 ± 0.11 | 4.68 ± 0.13 |  | 
32 | VQIRRLEAAGESLEEEIRRKQILL [ZC2HC1C] | 3.31 ± 0.37 | 3.45 ± 0.37 |  | 
33 | RKFSRECEDQKQIKKPESFSKQIV [NEUROD6] | 4.43 ± 0.27 | 4.21 ± 0.43 |  | 
34 | LPNKQVLGLSKLARIVEIYSRRLQ [GCH1] | 2.31 ± 0.5 | 2.08 ± 0.53 |  | 
35 | NRPLSLKDQQTFARSVGLKWRKVG [TRADD] | 3.03 ± 0.15 | 3.17 ± 0.11 |  | 
36 | PIFVNSPTLDAPGGRALVVRKVPP [SMAD6] | 3.23 ± 0.059 | 3.34 ± 0.29 |  | 
37 | LVWIRGPGFGCKAVRCASGRCTVR [SDE2] | 2.37 ± 0.87 | 2.36 ± 0.42 |  | 
38 | SPKTNGHIENGPFSLEQQLDDEDD [SRPK2] | 5.522 ± 0.051 | 5.56 ± 0.22 |  | 
39 | MEGTPTIKSKKKLLQIIDTTLLKC [VPS39] | 2.25 ± 0.24 | 2.36 ± 0.25 |  | 
40 | LDLSEEDSDDPSVTLELSQLSMLP [VDR] | 4.62 ± 0.3 | 4.73 ± 0.26 |  | 
41 | IKCFHEIITIGYNVYHSYDLPWFR [CDS2] | 2.21 ± 0.12 | 2.31 ± 0.33 |  | 
42 | HHFFCDIAPVLKLASHHNHFSQIV [OR10K2] | 2.45 ± 0.45 | 2.67 ± 0.55 |  | 
43 | IGLGHIYSGTFALIGAAAFLGGVV [CLCN6] | 2.94 ± 0.19 | 3.27 ± 0.7 |  | 
44 | YYHRGHVDPANDTFDIDPMVVTDC [MCOLN1] | 3.63 ± 0.21 | 3.78 ± 0.14 |  | 
